T1: SMARCAD1 (human, UniProt Q9H4L7-2 1-1028, V974A)
T1 sequence: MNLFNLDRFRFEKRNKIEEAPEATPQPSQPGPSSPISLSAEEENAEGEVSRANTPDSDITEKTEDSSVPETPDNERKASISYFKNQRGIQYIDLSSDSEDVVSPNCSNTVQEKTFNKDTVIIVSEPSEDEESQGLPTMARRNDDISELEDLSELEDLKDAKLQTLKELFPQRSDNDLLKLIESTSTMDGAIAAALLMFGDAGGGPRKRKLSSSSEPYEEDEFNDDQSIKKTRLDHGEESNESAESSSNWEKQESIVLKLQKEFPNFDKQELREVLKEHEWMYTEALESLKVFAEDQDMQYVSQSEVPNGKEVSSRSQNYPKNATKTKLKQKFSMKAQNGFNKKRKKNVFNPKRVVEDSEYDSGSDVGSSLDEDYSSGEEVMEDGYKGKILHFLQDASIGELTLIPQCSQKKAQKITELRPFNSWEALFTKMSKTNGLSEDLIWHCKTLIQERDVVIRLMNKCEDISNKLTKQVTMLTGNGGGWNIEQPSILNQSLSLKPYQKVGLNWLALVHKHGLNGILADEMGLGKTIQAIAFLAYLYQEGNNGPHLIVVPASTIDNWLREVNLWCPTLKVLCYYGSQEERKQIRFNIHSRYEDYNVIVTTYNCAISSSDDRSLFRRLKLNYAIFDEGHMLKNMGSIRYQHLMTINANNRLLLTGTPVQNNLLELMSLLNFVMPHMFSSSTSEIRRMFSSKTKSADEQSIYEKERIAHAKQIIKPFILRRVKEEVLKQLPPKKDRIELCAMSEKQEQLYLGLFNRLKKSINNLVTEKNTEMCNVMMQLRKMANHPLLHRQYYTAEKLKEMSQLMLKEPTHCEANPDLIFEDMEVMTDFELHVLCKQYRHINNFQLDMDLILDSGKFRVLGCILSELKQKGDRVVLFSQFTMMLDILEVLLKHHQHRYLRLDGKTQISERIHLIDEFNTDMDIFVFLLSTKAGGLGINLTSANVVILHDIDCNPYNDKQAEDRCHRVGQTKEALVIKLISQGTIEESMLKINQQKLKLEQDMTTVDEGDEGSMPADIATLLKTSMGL

B1: R-loopshort (mixed)
DNA 1: GCCAGGGACGAGGTGAACCTGCAGGTGGGCGGCTACTACTTAGATGTCATCCGAGGCTTATTGGTAGAATTCGGCAGCGTCATGCGACGGC
DNA 2: GCCGTCGCATGACGCTGCCGAATTCTACCACGCGATTCATACCTGTCGTGCCAGCTGCTTTGCCCACCTGCAGGTTCACCTCGTCCCTGGC
RNA: GCAGCUGGCACGACAGGUAUGAAUC
B2: DNA-RNA hybrid (DNA:RNA)
RNA: GCAGCUGGCACGACAGGUAUGAAUC
DNA: GATTCATACCTGTCGTGCCAGCTGC
B3: dsDNAshort (dsDNA)
DNA 1: GCAGCTGGCACGACAGGTATGAATC
DNA 2: GATTCATACCTGTCGTGCCAGCTGC

Tests used:
SMARCAD1 [1] = molecular target: T1, SMARCAD1; test: fluorescence polarization
SMARCAD1 [2] = molecular target: T1, SMARCAD1; test: fluorescence polarization; remark: listed apart in the source

| Binder | apparent K (half saturation) (SMARCAD1 [1]) | binding result (SMARCAD1 [2]) |
| --- | --- | --- |
| B1 | 26.1 ± 1.4 nM |  |
| B2 |  | binds |
| B3 | 39.5 ± 2 nM |  |
